B1: Serine/threonine-protein kinase tousled-like 1 (Caenorhabditis elegans), P34314 (parent)
chain: MSMLSMDGIVAGGGSSSGGGERSFVLEQKMFNTGPQNKALPTVQSSGSSSNHAPIVGESPLGTVSSTMATGDTGRVGNVTYMSSGMLGATQFMPQNSSHPSTSVMMQQVPPQNGGATRSSPTEMQQCMQAMSEDSIEMRDYNSGVHHMHPHQMQMQQQQQHHQQQYNMSYHNHQQQMQQMHYHQQQQQYQQQQAQHHQMYAPQIQQQQQQPQQQSQQQSAQQPQQSSAALQHVNESSNLSSAGSISDREPEQHGGTPQRPTAPQSSTATDKKTRKRRKAGPTEDQATPKQERKITEFMKVGGEVASGNSVARCLLTEYHQNQGSPKRQPAVQQNGSNSYDSQQQQPQMNQHEMQNSYWGVATPSLGVNNRGTPTPTQQQHYSSDSNSNSNQSPPGQGNQSGRMVRTIDEETQTDSSLSQANPQNADEVAKMNRIIEDHRRQIEELNSKNSLERRKNEASKETIKRLLIDKNQIERKALRDKTAADSPRIGCFKTTRTGDSFRDQWVDGWAFAEMDKKTEQINAERNEIASASALLKKRKPLGIGKEPKRPQAVNSQNDSNGMQPSTSSNTNGDDAIFRRPEEPKEIQYQEYIELDEIYKLRREHLRKEETDLSMEKERLEKEKQHHVRELKRASNESASQFNDHRLLHKRYLMLNLLGKGGFSEVWKAFDIEENRYVACKIHHVNKDWKEEKKANYVKHAMREKDIHKSLDHCRIVKQYDLLTIDNHSFCTVLEYVPGNDLDFYLKQNRSISEKEARSIIMQVVSALVYLNEKSTPIIHYDLKPANILLESGNTSGAIKITDFGLSKIMEGESDDHDLGIELTSQFAGTYWYLPPETFIVPPPKITCKVDVWSIGVIFYQCIYGKKPFGNDLTQQKILEYNTIINAREVSFPSKPQVSSAAQDFIRRCLQYRKEDRADVFELAKHELFRPRGAIRASVAGSLLLVIITLCQHSNRSEDRLCVSNV
partner: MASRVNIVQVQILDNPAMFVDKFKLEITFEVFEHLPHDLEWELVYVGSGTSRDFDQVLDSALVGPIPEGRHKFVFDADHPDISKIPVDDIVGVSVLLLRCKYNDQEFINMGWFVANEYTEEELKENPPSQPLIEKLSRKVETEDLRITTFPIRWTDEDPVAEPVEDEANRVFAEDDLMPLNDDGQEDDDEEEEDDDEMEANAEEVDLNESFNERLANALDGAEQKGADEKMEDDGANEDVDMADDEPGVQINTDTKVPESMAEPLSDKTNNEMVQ

Variants of: B1
Settings: with asf1_caeel unc-85, Q19326

Row | effect of a mutation on the interaction | Variant
1 | increasing interaction | S634E
2 | increasing interaction | S634A

— IntAct's records for PubMed 15916946
